The source of these data is PMC6572788 (2019).

Test [1] deals with T1, 2PT-NBD1 (human CFTR NBD1, residues 387–646, S492P/A534P/I539T) (human, UniProt P13569 387-646, S492P | A534P | I539T, biotin (in the ELISA; site not stated)). Description: ELISA; printed as pEC50 8.7. (In general: An ELISA detects its analyte on a solid surface through an enzyme-linked reagent.)
The target of test [2] is T1, 2PT-NBD1 (human CFTR NBD1, residues …). As to the kind of experiment: ELISA; printed as pEC50 7.9.
Test [3] shares this target. Description: ELISA; printed as pEC50 5.8.
Test [4] shares this target. Description: ELISA; printed as pEC50 7.6.
Test [5] has the same target. Description: ELISA; printed as pEC50 8.4.

The term EC50 denotes the midpoint of the concentration-response curve.

T1 sequence (P13569 387-646 S492P/A534P/I539T): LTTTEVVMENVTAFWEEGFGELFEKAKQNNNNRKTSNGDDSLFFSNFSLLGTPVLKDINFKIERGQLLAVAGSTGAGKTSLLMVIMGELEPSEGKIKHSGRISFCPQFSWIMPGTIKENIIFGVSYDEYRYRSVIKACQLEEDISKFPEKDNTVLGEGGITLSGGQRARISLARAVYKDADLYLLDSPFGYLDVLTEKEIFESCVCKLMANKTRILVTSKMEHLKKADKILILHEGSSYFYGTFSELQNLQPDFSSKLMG

B1: nanobody T27 (VHH)
VHH: QVQLQESGGGLEQPGGSLRLSCATSGVIFGINAMGWYRQAPGKQRELVATFTSGGSTNYADFVEGRFTISRDNAKNTVYLQMNGLRPEDTAVYYCHATVVVSRYGLTYDYWGQGTQVTVSS
The molecule B1 gave a half-maximal effective concentration (EC50) in test [1] of 2 nM.

B2: nanobody T2a (VHH)
VHH: QVQLQESGGGLVQAGGSLRLSCAASGSIFRIDAMGWYRQAPGKQRELVAHSTSGGSTDYADSVKGRFTISRDNAKNTVYLQMNSLKPEDTAVYYCNADVRTRWYASNNYWGQGTQVTVSS
In the case of B2, the 50% effective concentration (EC50) in test [2] was determined as 12.6 nM.

B3: nanobody T8 (VHH)
VHH: QVQLQESGGGLVQPGGSLRLSCAASGSTSSINAMGWYRQAPGKQREPVAISSSGGDTRYAEPVKGRFTISRDNAQNKVYLQMNSLKPEDTAVYYCWLNWGRTSVNSWGQGTQVTVSS
On to B3, for which a half-maximal effect in test [2] (EC50) was put at 12.6 nM.

B4: nanobody G3a (VHH)
VHH: QVQLQESGGGLVQAGGSLRLSCTASGRAFSWYVMGWFRQAPGKEREFVATVSGNGSRRDYADSVKGRFTISRDNAKNTVYLQMNSLKPEDTAVYYCAASSTYYYTDPEKYDYWGQGTQVTVSS
In test [3], B4 displayed a half-maximal effective concentration (EC50) of 1580 nM.

B5: nanobody D12 (VHH)
VHH: QVQLQESGGGLVQAGSSLRLACAATGSIRSINNMGWYRQAPGKQRGMVAIITRVGNTDYADSVKGRFTISRDNAKNTVYLQMNSLKPEDTATYYCHAEITEQSRPFYLTDDYWGQGTQVTVSS
Take B5: the concentration giving a half-maximal response (EC50) in test [4] worked out at 25.1 nM.

B6: nanobody T4 (VHH)
VHH: QVQLQESGGGLVQAGGSLRLSCAASGSTFAIIAMGWYRQAPGKQRELVAVISTGDTRYADSVKGRFTISRDNAKNTVYLQMDSLRPEDTAVYYCNAAVQVRDYRNYWGQGTQVTVSS
As for B6, the concentration giving a half-maximal response (EC50) in test [5] stood at 3.98 nM.
